To fix the notation:
T1: EsCas13d, nuclease-dead (Eubacterium siraeum, UniProt B0MS50, R295A;H300A;R849A;H854A)
T1 sequence: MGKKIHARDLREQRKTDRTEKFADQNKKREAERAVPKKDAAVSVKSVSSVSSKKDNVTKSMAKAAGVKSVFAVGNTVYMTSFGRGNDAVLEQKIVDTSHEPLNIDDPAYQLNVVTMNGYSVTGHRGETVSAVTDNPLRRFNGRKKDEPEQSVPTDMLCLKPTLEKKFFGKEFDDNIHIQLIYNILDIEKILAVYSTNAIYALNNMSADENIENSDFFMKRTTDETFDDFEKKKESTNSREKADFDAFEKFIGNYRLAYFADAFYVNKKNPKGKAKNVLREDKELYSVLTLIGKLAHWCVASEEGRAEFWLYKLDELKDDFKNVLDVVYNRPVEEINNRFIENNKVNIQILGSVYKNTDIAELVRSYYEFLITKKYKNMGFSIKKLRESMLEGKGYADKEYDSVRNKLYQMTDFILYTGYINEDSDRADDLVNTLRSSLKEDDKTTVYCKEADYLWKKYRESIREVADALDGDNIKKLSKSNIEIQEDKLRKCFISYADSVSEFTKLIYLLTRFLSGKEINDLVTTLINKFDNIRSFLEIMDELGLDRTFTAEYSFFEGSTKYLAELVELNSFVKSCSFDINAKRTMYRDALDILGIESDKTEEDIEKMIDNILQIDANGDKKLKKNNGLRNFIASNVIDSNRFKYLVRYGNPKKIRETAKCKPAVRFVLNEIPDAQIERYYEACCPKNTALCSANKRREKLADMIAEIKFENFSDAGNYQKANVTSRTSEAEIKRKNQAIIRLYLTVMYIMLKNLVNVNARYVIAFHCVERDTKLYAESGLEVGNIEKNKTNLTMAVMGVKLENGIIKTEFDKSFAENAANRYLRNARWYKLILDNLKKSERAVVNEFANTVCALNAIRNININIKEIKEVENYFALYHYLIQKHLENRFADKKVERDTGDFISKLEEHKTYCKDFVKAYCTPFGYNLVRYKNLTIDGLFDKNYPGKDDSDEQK

B1: target 1 MT 5'PFS UCG 3'PFS UCU (mixed)
RNA 1: CACCCGUGCAAAAAUGCAGGGGUCUAAAACUGAGCGGAUAACCUCUCUAUGG
RNA 2: GGGAAUGGAUCCACAUCUACGAAUUCUCGCCAUAGAGAGGUUAUCCGCUCAUCUAGAUCGGAAGAGCACACGU
B2: target 1 MT 5'PFS CUG 3'PFS AAA (mixed)
RNA 1: B1 RNA 1
RNA 2: B1 RNA 2 with U27C, C28U, U52A, C53A, U54A
B3: target 1 complement block 10-13 (mixed)
RNA 1: B1 RNA 1
RNA 2: B1 RNA 2 with U27G, C28U, G29A, G39C, G40C, U41A, U42A, U52C, U54G
B4: target 1 MT 5'PFS GCG 3'PFS AUC (mixed)
RNA 1: B1 RNA 1
RNA 2: B1 RNA 2 with U27G, U52A, C53U, U54C
B5: target 1 MT 5'PFS AGG 3'PFS CGA (mixed)
RNA 1: B1 RNA 1
RNA 2: B1 RNA 2 with U27A, C28G, U52C, C53G, U54A
B6: target 1 MT 5'PFS UUU 3'PFS UCC (mixed)
RNA 1: B1 RNA 1
RNA 2: B1 RNA 2 with C28U, G29U, U54C
B7: target 1 MT 5'PFS CUG 3'PFS CGG (mixed)
RNA 1: B1 RNA 1
RNA 2: B1 RNA 2 with U27C, C28U, U52C, C53G, U54G
B8: target 1 MT 5'PFS CUG 3'PFS CGU (mixed)
RNA 1: B1 RNA 1
RNA 2: B1 RNA 2 with U27C, C28U, U52C, C53G
B9: target 1 MT 5'PFS AAC 3'PFS CGG (mixed)
RNA 1: B1 RNA 1
RNA 2: B1 RNA 2 with U27A, C28A, G29C, U52C, C53G, U54G
B10: target 1 MT 5'PFS GCG 3'PFS AUU (mixed)
RNA 1: B1 RNA 1
RNA 2: B1 RNA 2 with U27G, U52A, C53U
B11: target 1 MT 5'PFS GGG 3'PFS CUU (mixed)
RNA 1: B1 RNA 1
RNA 2: B1 RNA 2 with U27G, C28G, U52C, C53U
B12: target 1 MT 5'PFS UCG 3'PFS UUG (mixed)
RNA 1: B1 RNA 1
RNA 2: B1 RNA 2 with C53U, U54G
B13: target 1 insC 3' of 19,insA 3' of 12 (mixed)
RNA 1: B1 RNA 1
RNA 2: GGGAAUGGAUCCACAUCUACGAAUUCGUACCAUCAGAGAGGAUUAUCCGCUCACCGAGAUCGGAAGAGCACACGU
B14: target 1 MT 5'PFS GAG 3'PFS CCG (mixed)
RNA 1: B1 RNA 1
RNA 2: B1 RNA 2 with U27G, C28A, U52C, U54G
B15: target 1 MT 5'PFS GGG 3'PFS CUA (mixed)
RNA 1: B1 RNA 1
RNA 2: B1 RNA 2 with U27G, C28G, U52C, C53U, U54A
B16: target 1 MT 5'PFS ACG 3'PFS CGA (mixed)
RNA 1: B1 RNA 1
RNA 2: B1 RNA 2 with U27A, U52C, C53G, U54A
B17: target 1 MT 5'PFS CCC 3'PFS CUG (mixed)
RNA 1: B1 RNA 1
RNA 2: B1 RNA 2 with U27C, G29C, U52C, C53U, U54G
B18: target 1 MT 5'PFS ACU 3'PFS UAU (mixed)
RNA 1: B1 RNA 1
RNA 2: B1 RNA 2 with U27A, G29U, C53A
B19: target 1 MT 5'PFS CAC 3'PFS AUA (mixed)
RNA 1: B1 RNA 1
RNA 2: B1 RNA 2 with U27C, C28A, G29C, U52A, C53U, U54A
B20: target 1 MT 5'PFS UCG 3'PFS CUG (mixed)
RNA 1: B1 RNA 1
RNA 2: B1 RNA 2 with U52C, C53U, U54G
B21: target 1 MT 5'PFS UCG 3'PFS CUC (mixed)
RNA 1: B1 RNA 1
RNA 2: B1 RNA 2 with U52C, C53U, U54C
B22: target 1 MT 5'PFS UGC 3'PFS UAA (mixed)
RNA 1: B1 RNA 1
RNA 2: B1 RNA 2 with C28G, G29C, C53A, U54A
B23: target 1 MT 5'PFS GCG 3'PFS AUA (mixed)
RNA 1: B1 RNA 1
RNA 2: B1 RNA 2 with U27G, U52A, C53U, U54A
B24: target 1 MT 5'PFS UCG 3'PFS UUA (mixed)
RNA 1: B1 RNA 1
RNA 2: B1 RNA 2 with C53U, U54A
B25: target 1 MT 5'PFS GGG 3'PFS CUC (mixed)
RNA 1: B1 RNA 1
RNA 2: B1 RNA 2 with U27G, C28G, U52C, C53U, U54C
B26: target 1 MT 5'PFS CCC 3'PFS CUA (mixed)
RNA 1: B1 RNA 1
RNA 2: B1 RNA 2 with U27C, G29C, U52C, C53U, U54A
B27: target 1 MT 5'PFS GUC 3'PFS AAC (mixed)
RNA 1: B1 RNA 1
RNA 2: B1 RNA 2 with U27G, C28U, G29C, U52A, C53A, U54C
B28: target 1 MT 5'PFS CAC 3'PFS AUC (mixed)
RNA 1: B1 RNA 1
RNA 2: B1 RNA 2 with U27C, C28A, G29C, U52A, C53U, U54C
B29: target 1 MT 5'PFS GGG 3'PFS CUG (mixed)
RNA 1: B1 RNA 1
RNA 2: B1 RNA 2 with U27G, C28G, U52C, C53U, U54G
B30: target 1 MT 5'PFS UAU 3'PFS AUC (mixed)
RNA 1: B1 RNA 1
RNA 2: B1 RNA 2 with C28A, G29U, U52A, C53U, U54C
B31: target 1 MT 5'PFS GCG 3'PFS AUG (mixed)
RNA 1: B1 RNA 1
RNA 2: B1 RNA 2 with U27G, U52A, C53U, U54G
B32: target 1 MT 5'PFS GUC 3'PFS AAU (mixed)
RNA 1: B1 RNA 1
RNA 2: B1 RNA 2 with U27G, C28U, G29C, U52A, C53A
B33: target 1 MT 5'PFS CCU 3'PFS CCG (mixed)
RNA 1: B1 RNA 1
RNA 2: B1 RNA 2 with U27C, G29U, U52C, U54G
B34: target 1 MT 5'PFS AAG 3'PFS UAU (mixed)
RNA 1: B1 RNA 1
RNA 2: B1 RNA 2 with U27A, C28A, C53A
B35: target 1 MT 5'PFS UGC 3'PFS UAG (mixed)
RNA 1: B1 RNA 1
RNA 2: B1 RNA 2 with C28G, G29C, C53A, U54G
B36: target 1 MT 5'PFS UAU 3'PFS AUA (mixed)
RNA 1: B1 RNA 1
RNA 2: B1 RNA 2 with C28A, G29U, U52A, C53U, U54A
B37: target 1 G13A,C22A (mixed)
RNA 1: B1 RNA 1
RNA 2: B1 RNA 2 with U27G, C28U, G29A, C30A, G39A, U52C, U54G
B38: target 1 MT 5'PFS UCG 3'PFS UUC (mixed)
RNA 1: B1 RNA 1
RNA 2: B1 RNA 2 with C53U, U54C

Positions count from the first letter of the chain named. Names and notes keep the numbering of the source.

For orientation: Kd means the equilibrium constant for the complex coming apart.

The target of the series is T1, EsCas13d, nuclease-dead. The series can be described thus: crRNA (strand 1, pre-loaded); Mg2+; 40 mM Tris-HCl pH 7.5, 150 mM NaCl, 6 mM MgCl2, 1 mM DTT, 0.1% Tween-20, 0.2 mg/ml BSA; 25 C; 10 min per concentration, then washed. To be noted: tags: His6-TwinStrep-SUMO cleaved; N-terminal SNAP kept (SNAP-Surface 488); label: 3' end held by stalled T7 RNA polymerase.
Take B1: the Kd was found to be 36 ± 10.5 nM.

B2 displayed a Kd of 10.6 ± 2.7 nM.

Regarding B3, the Kd is 99 ± 30 nM.

The molecule B4 showed a Kd of 22 ± 6 nM.

In the case of B5, the Kd is roughly 73 nM.

In turn, B6 came in with a Kd of 90 ± 45 nM.

For B7, the affinity, expressed as Kd, was 18.6 ± 3.55 nM.

As to B8, the Kd amounted to 21 ± 6.5 nM.

Consider B9, for which the Kd worked out at 31 ± 7 nM.

Molecule B10 showed a Kd of 20 ± 7.5 nM.

B11 returned a Kd of 24.5 ± 9 nM.

Regarding B12, the Kd is 43 ± 8 nM.

Consider B13, for which the affinity, expressed as Kd, was 69 ± 9 nM.

As for B14, the Kd is roughly 25 nM.

Molecule B15 came in with an equilibrium dissociation constant (Kd) of 25.1 ± 5.2 nM.

B16 returned a Kd of 28 ± 12 nM.

For the molecule B17, the Kd was roughly 9.5 nM.

Consider B18, for which the Kd was roughly 72.5 nM.

Molecule B19 returned a Kd of roughly 17 nM.

The molecule B20 came in with a Kd of 57.5 ± 23 nM.

B21 had a Kd of 45.5 ± 20 nM.

B22: the affinity, expressed as Kd, was 16 ± 4.5 nM.

On to B23, for which the Kd came to 16.2 ± 2.5 nM.

Molecule B24 came in with a Kd of 31.5 ± 7.5 nM.

Regarding B25, the Kd stood at 23 ± 7 nM.

Molecule B26 gave a Kd of roughly 17 nM.

Turning to B27, binding was characterised by a dissociation constant (Kd) of 36.5 ± 17.5 nM.

The molecule B28 had a Kd of roughly 28.5 nM.

As to B29, the Kd worked out at 14.7 ± 2.1 nM.

B30 yielded a Kd of roughly 65 nM.

B31: the Kd was found to be 30.5 ± 8 nM.

B32: the Kd came out at 25.5 ± 6.5 nM.

B33: the Kd came out at 16.5 ± 7.5 nM.

Molecule B34 gave a Kd of 18.5 ± 5 nM.

As for B35, the affinity, expressed as Kd, was 15.9 ± 4.1 nM.

Consider B36, for which binding was characterised by a dissociation constant (Kd) of 43 ± 15.5 nM.

B37 gave a Kd of 9.6 ± 0.5 nM.

For the molecule B38, the Kd came out at 37 ± 12.5 nM.

These data come from publication PMC10786891, “Massively parallel profiling of RNA-targeting CRISPR-Cas13d”.
